This test has as its target β2B (UniProt Q08289). As to the kind of experiment: flow-cytometric FRET 2-hybrid.

Rad, sequence (O88667 whole entry, looked up, change not shown): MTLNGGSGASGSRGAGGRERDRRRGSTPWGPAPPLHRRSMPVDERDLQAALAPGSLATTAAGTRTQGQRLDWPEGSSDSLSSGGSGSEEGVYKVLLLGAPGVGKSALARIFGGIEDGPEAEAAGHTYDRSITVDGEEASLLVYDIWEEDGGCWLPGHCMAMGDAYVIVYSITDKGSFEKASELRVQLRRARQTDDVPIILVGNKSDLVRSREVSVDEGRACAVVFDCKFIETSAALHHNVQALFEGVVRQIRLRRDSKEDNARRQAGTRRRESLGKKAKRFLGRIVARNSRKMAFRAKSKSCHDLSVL

Regarding “Rad (from UniProt O88667) 4-SA Rad with PKAcat”, the “other: Kd,EFF (FRET 2-hybrid, relative)” value (reference: WT Rad with PKAcat, sites S25,S38,S272,S300) is given as “stronger; reference 145231 ± 3084”.

“Rad (from UniProt O88667) 4-SA Rad, PKAcat co-expressed”: where the note is “reference: 4-SA Rad, no PKAcat”, the “other: Kd,EFF (FRET 2-hybrid, relative)” value was “same; reference 4346± 197”.

For “Rad (from UniProt O88667) WT Rad, PKAcat co-expressed”, the “other: Kd,EFF (FRET 2-hybrid, relative)” value (reference: WT Rad, no PKAcat, sites S25,S38,S272,S300) is listed as “weaker; reference 7957 ± 418”.

Values taken from paper PMC7018383.
